Assay results reported in paper PMC5389562.

What was measured:
mCherry-U2AF35, Q01081 [1] = molecular target: T1, mCherry-U2AF35, Q01081; experiment: single-molecule photobleaching step counting (TIRF microscopy); nuclear extract in splicing conditions, no exogenous pre-mRNA, with ATP (+ATP), in the presence of ribonuclease; diluted and applied to cover slips; labeled protein spots bleaching in one or two steps; conditions: remark: other sources report otherwise
T1 chain: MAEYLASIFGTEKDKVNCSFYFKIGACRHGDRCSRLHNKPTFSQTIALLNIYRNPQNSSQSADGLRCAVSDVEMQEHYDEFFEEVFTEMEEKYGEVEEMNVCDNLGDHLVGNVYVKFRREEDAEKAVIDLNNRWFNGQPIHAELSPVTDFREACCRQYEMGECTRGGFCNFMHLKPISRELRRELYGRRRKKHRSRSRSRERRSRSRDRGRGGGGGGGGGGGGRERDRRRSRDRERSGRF

mCherry-U2AF35, Q01081 [2] = molecular target: T1, mCherry-U2AF35, Q01081; experiment: single-molecule photobleaching step counting (TIRF microscopy); nuclear extract in splicing conditions, no exogenous pre-mRNA, ATP depleted (−ATP), in the presence of ribonuclease; diluted and applied to cover slips; labeled protein spots bleaching in one or two steps; conditions: remark: other sources report otherwise

B1: mCherry-U2AF35, Q01081 1-240 (natural protein)
chain: MAEYLASIFGTEKDKVNCSFYFKIGACRHGDRCSRLHNKPTFSQTIALLNIYRNPQNSSQSADGLRCAVSDVEMQEHYDEFFEEVFTEMEEKYGEVEEMNVCDNLGDHLVGNVYVKFRREEDAEKAVIDLNNRWFNGQPIHAELSPVTDFREACCRQYEMGECTRGGFCNFMHLKPISRELRRELYGRRRKKHRSRSRSRERRSRSRDRGRGGGGGGGGGGGGRERDRRRSRDRERSGRF
mCherry-U2AF35, Q01081 [1]
  molecules bleaching in 1 step (of 2 versus 1 steps), +ATP: 218 molecules
  molecules bleaching in 2 steps (of 2 versus 1 steps), +ATP: 21 molecules
mCherry-U2AF35, Q01081 [2]
  molecules bleaching in 1 step (of 2 versus 1 steps), −ATP: 189 molecules
  molecules bleaching in 2 steps (of 2 versus 1 steps), −ATP: 33 molecules
